Biological target: T1, FAP100-HA (FAP100/Mia1p with a triple HA tag, in the rescued strain mia1R) (C. reinhardtii, UniProt A8I4E9 1-576)
T1 sequence (looked up): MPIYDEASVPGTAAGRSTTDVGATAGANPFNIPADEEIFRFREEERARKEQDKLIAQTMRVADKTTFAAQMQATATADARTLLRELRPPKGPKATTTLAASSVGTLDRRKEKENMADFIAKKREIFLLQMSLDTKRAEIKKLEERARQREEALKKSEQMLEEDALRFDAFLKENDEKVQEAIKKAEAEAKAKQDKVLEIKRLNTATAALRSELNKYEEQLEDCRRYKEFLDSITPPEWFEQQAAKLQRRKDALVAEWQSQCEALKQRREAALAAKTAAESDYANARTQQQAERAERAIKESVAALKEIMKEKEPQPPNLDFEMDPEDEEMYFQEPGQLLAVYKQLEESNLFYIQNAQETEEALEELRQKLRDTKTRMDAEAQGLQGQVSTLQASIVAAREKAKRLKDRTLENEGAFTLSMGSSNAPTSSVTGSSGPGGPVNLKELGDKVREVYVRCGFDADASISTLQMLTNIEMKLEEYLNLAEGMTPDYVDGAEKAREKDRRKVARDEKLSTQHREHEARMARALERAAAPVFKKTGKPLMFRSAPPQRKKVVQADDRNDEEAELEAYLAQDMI
Assay: affinity purification with mass spectrometry

B1: FAP73 (Mia2p), endogenous (natural protein, UniProt M1V4Y8 1-308, looked up)
chain: MDEEGSATARAKMMPQTLVLDHVSPATRLLEKRRQMFEVQEALEAQKQDFNRKEEVFKRREEALKLKDLELQESLIRFSKFLQENDSKRARAEKKANDEIKARIQKEKEIEQLTEVLEELKSEKERILEVLEKNMRYQHYLESVLEVADEYQEVADLLLRHATLSATNADLKDHQRKCSELAEKVRTELQIYVKQKTDEILNLNNQVAKLKTELEGYEAEAMVQEAKKDSSLQIASQRTLEYGQVVLSADNIFNRCRSKSSIGHPAESNPLHQLDVIGNFVSDLGSIIKQFKQEQAKRASLASRAEIE
In the case of B1, the “stoichiometry N” value is reported as 1.83 to 2.89 FAP73 per FAP100.

— publication PMC3628515 (The Journal of Cell Biology, 2013)
